Marks after values point to notes of the source that are not given here.
Legend:
[1] = Example 3 blood insulin pharmacokinetics after SC or intra-jejunal jet delivery; type: in vivo, Yorkshire female swine
Description: A total of 18 Yorkshire female swine in good health and weighing 60-70 kg each were included in this study. Swine were divided into two groups with 9 animals per group. […] A sham surgical laparotomy was performed. […] The jet delivery device was configured with the single nozzle in an axial orientation.
Swine were divided into two groups with 9 animals per group. […] In all 18 animals, a laparotomy procedure was performed to expose the abdominal cavity. Animals remained under anesthesia during the entire procedure for the PK/PD study.
For the laparotomy in group 02, a small segment of the jejunal mucosa and serosa was exposed by midline laparotomy and the jet delivery device was inserted through antimesenteric incision.
(§1) Blood samples were kept on wet ice until centrifugation and separation of plasma. […] Glucose was monitored every five (5) minutes during the study by portable glucose analyzer (StatStrip (SS) hospital glucose monitoring system (Nova Biomedical, Waltham, Mass.)). At each time point, approximate 0.1 mL of blood was drawn and immediately placed on a glucose monitoring test strip, and the whole blood glucose concentration was measured by the SS in triplicate.
The animals were anesthetized for the entire ECP.

[2] = Example 3 euglycemic clamp pharmacodynamics (blood glucose, dextrose infusion rate); type: in vivo, Yorkshire female swine
Description: as §1
A euglycemic clamp procedure (ECP) was employed to compare pharmacokinetics and pharmacodynamics of regular human Insulin (NOVOLIN® R) delivered subcutaneously (SC) in the neck versus intra-jejunally (IJ) by the jet delivery device in the small intestine. ECP was used to quantify the amount of glucose required to maintain normoglycemia after exogenous bolus of insulin. […] The animals were anesthetized for the entire ECP.

[3] = baseline dose, Admin. SC (Table 17); cited from earlier work
[4] = Example 6 dulaglutide plasma pharmacokinetics, ID via 2-nozzle device vs IV vs SC; type: in vivo, female Yorkshire pigs (Sus scrofa domesticus)
Excerpt: The study design is shown below in Table 35.
Blood samples were kept on wet ice until centrifugation. […] All samples were maintained chilled throughout processing.

[5] = IJ administration by jet delivery device (~40 U), Average of animals
[6] = IJ administration by jet delivery device (~40 U), animal 18P17
[7] = IJ administration by jet delivery device (~40 U), animal 18P22
[8] = IJ administration by jet delivery device (~40 U), animal 18P23
[9] = IJ administration by jet delivery device (~40 U), animal 18P25
[10] = IJ administration by jet delivery device (~40 U), animal 18P28
[11] = IJ administration by jet delivery device (~40 U), animal 18P33
[12] = IJ administration by jet delivery device (~40 U), animal 18P36
[13] = SC administration, animal 18P15
[14] = SC administration, animal 18P16
[15] = SC administration, animal 18P19
[16] = SC administration, animal 18P20
[17] = SC administration, animal 18P34
[18] = SC administration, animal 18P35
[19] = ID via ingestible device, 320 psig

## Novolin® R: regular human insulin (NOVOLIN® R)
[1]; AUC0-420 min
  AUC of blood insulin, SC vs IJ group: higher than that of the IJ administration group
[1]; [5]
  Cmax blood insulin: 77.40 uIU/mL
  Tmax blood insulin: 55.63 min
[1]; IJ administration by jet delivery device (~40 U), animal 18P14
  Cmax blood insulin: 96.77 uIU/mL
[1]; [6]
  Cmax blood insulin: 5.03 uIU/mL
  Tmax blood insulin: 50 min
[1]; [7]
  Cmax blood insulin: 7.96 uIU/mL
  Tmax blood insulin: 90 min
[1]; [8]
  Cmax blood insulin: 48.77 uIU/mL
  Tmax blood insulin: 40 min
[1]; [9]
  Cmax blood insulin: 40.93 uIU/mL
  Tmax blood insulin: 20 min
[1]; [10]
  Cmax blood insulin: 85.38 uIU/mL
  Tmax blood insulin: 40 min
[1]; [11]
  Cmax blood insulin: 207.96 uIU/mL
  Tmax blood insulin: 40 min
[1]; [12]
  Cmax blood insulin: 126.39 uIU/mL
  Tmax blood insulin: 90 min
[1]; [13]
  Cmax blood insulin: 451.00 uIU/mL
  Tmax blood insulin: 50 min
[1]; [14]
  Cmax blood insulin: 60.74 uIU/mL
  Tmax blood insulin: 180 min
[1]; [15]
  Cmax blood insulin: 354.00 uIU/mL
  Tmax blood insulin: 105 min
[1]; [16]
  Cmax blood insulin: 356.60 uIU/mL
  Tmax blood insulin: 30 min
[1]; SC administration, animal 18P21
  Cmax blood insulin: 65.71 uIU/mL
[1]; [17]
  Cmax blood insulin: 59.18 uIU/mL
  Tmax blood insulin: 120 min
[1]; [18]
  Cmax blood insulin: 73.34 uIU/mL
  Tmax blood insulin: 50 min
[1]; in vivo, sc
  maximum plasma concentration Cmax, SC vs IJ group: higher than that of the IJ administration group
[2]; first 70 minutes after administration
  mean dextrose infusion rate, IJ vs SC group: higher in the IJ administration group
[2]; from 75 minutes to 420 minutes post-administration
  mean dextrose infusion rate, IJ vs SC group: higher in the SC administration group

## glucagon
[3]
  Bioavail.: 100.0%

## dulaglutide
[4]; ID via 2-nozzle device 320 psig, 1.2 mg, swine plasma
  Tmax: 480 min
[4]; ID via 2-nozzle device 320 psig, 1.2 mg, one animal below detection limit excluded (N=4)
  (AUC)T0-T240 h ± SEM: 4355.86 ± 1094.57 ^a ng · hr/mL
[4]; [19]
  bioavailability relative to IV administration [(AUC)ID/IV*100%]: about 33%
  bioavailability relative to SC administration [(AUC)ID/SC*100%]: about 61%
[4]; ID via ingestible device, 320 psig, 1.2 mg, prior to exclusion of animal no. 8487, ±SEM
  AUCID (ng·hr/mL±SEM): 3890.00 ± 94.73 ng·h/mL
[4]; IV, 1.2 mg
  (AUC)T0-T240 h ± SEM: 16429.33 ± 600.93 ng·h/mL
[4]; SC, 1.2 mg
  (AUC)T0-T240 h ± SEM: 8869 ± 887.33 ng·h/mL
[4]; one animal in Group 1 (no. 8487; ID)
  plasma level of dulaglutide: below the limit of detection of the ELISA assay

## somatropin
[3]
  Bioavail.: 80.5%

B1: concizumab (antibody, chains of the INN, looked up, V domains shown)
VH: EVQLVESGGGLVKPGGSLRLSCAASGFTFSNYAMSWVRQTPEKRLEWVATISRSGSYSYFPDSVQGRFTISRDNAKNSLYLQMNSLRAEDTAVYYCARLGGYDEGDAMDSWGQGTTVTVSS
VL: DIVMTQTPLSLSVTPGQPASISCKSSQSLLESDGKTYLNWYLQKPGQSPQLLIYLVSILDSGVPDRFSGSGSGTDFTLKISRVEAEDVGVYYCLQATHFPQTFGGGTKVEIK
[3]
  Bioavail.: 93.0%

From patent US20220249814A1, “METHODS AND DEVICES FOR TREATING A DISEASE WITH BIOTHERAPEUTICS” (PROGENITY, INC., priority 2018, published 2022)
